For 34 variants, self-cleavage results are on record in the RNAGym collection of RNA variant scans (doi:10.1093/nar/gkz1192).

Sequences and labels used below:
B1: CPEB3 Ribozyme (parent)
chain: UAACAGGGGGCCACAGCAGAAGCGUUCACGUCGCAGCCCCUGUCAGAUUCUGGUGAAUCUGCGAAUUCUGCUGUAUAUCUC

The variants in the data set derive from B1. Put plainly: self-cleavage, relative activity (ratio to wild type); higher = more cleavage; in vitro, sequencing. In short, it runs like this: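 Relative activity compares each variant's cleaved/total read fraction with that of the unmutated ribozyme. To get these fractions, barcoded CPEB3 ribozyme libraries from rounds of error-prone PCR were transcribed with T7 RNA polymerase for 5 hours at 37°C and then given 15 min of DNase I treatment before EDTA was added. The RNAs were reverse transcribed with template switching and sequenced on Illumina, and DNA sequencing linked barcodes to variants. A minimum of 5 reads applied, and three batches were averaged.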
With UAACAGGGGGCCACAGCAGAAGCGUUCCCGUCGCAGCCCCUGUCAGAUUCUGGUGAAUCUGCGAAUUCUGCUGUAUAUCAC, the self-cleavage came out at 0.53.

As for UAACAGGGGGCCACAGCAGAAGCGUUCCCGUCGCAGCCCCUGUCAGAUUCUGGUGAAUCUGCGAAUUCUGCGGUAUAUCUC, the self-cleavage stood at 0.4.

On to UAACAGGGGGCCACAGCAGAAGCGUUCCCGUCGCAGCCCCUGUCAGAUUCUGGUGAAUCUGCGAAUUCUGCCGUAUAUCUC, for which the self-cleavage was determined as 0.61.

UAACAGGGGGCCACAGCAGAAGCGUUCCCGUCGCAGCCCCUGUCAGAUUCUGGUGAAUCUGCGAAUUCUGCAGUAUAUCUC: the self-cleavage was 0.38.

As to UAACAGGGGGCCACAGCAGAAGCGUUCGCGUCGCAGCCCCUGUCUGAUUCUGGUGAAUCUGCGAAUUCUGCUGUAUAUCUC, the self-cleavage amounted to 0.31.

For the variant UAACAGGGGGCCACAGCAGAAGCGUUCGCGUCGCAGCCCCUGUCCGAUUCUGGUGAAUCUGCGAAUUCUGCUGUAUAUCUC, the self-cleavage came to 0.33.

Turning to UAACAGGGGGCCACAGCAGAAGCGUUCGCGUCGCAGCCCCUGUCGGAUUCUGGUGAAUCUGCGAAUUCUGCUGUAUAUCUC, the self-cleavage is 0.4.

Regarding UAACAGGGGGCCACAGCAGAAGCGUUCGCGUCGCAGCCCCUGUCAGAUUCUGGUGAAUCUGCGAAUUCUGCUGUAUAUCUC, the self-cleavage is 0.67.

Regarding UAACAGGGGGCCACAGCAGAAGCGUUCCCGUCGCAGCCCCUGUCAGAUUCUGGUGAAUCUGCGAAUCCUGCUGUAUAUCUC, the self-cleavage is 0.22.

In the case of UAACAGGGGGCCACAGCAGAAGCGUUCCCGUCGCAGCCCCUGUCAGAUUCUGGUGAAUCUGCGAAUACUGCUGUAUAUCUC, the self-cleavage turned out to be 0.49.

As to UAACAGGGGGCCACAGCAGAAGCGUUCGCGUCGCAGCCCCUGUCAGAUUCUGGUGACUCUGCGAAUUCUGCUGUAUAUCUC, the self-cleavage was determined as 0.16.

Regarding UAACAGGGGGCCACAGCAGAAGCGUUCGCGUCGCAGCCCCUGUCAGAUUCUGGUGAGUCUGCGAAUUCUGCUGUAUAUCUC, the self-cleavage was 0.51.

As for UAACAGGGGGCCACAGCAGAAGCGUUCGCGUCGCAGCCCCUGUCAGAUUCUGGUGAUUCUGCGAAUUCUGCUGUAUAUCUC, the self-cleavage amounted to 0.24.

UAACAGGGGGCCACAGCAGAAGCGUUCCCGUCGCAGCCCCUGUCAGAUUCUGGUGAAUCUGCGAAUUCUGCUGUAUACCUC: the self-cleavage turned out to be 0.46.

For the variant UAACAGGGGGCCACAGCAGAAGCGUUCCCGUCGCAGCCCCUGUCAGAUUCUGGUGAAUCUGCGAAUUCUGCUGUAUAACUC, the self-cleavage came to 0.64.

For the variant UAACAGGGGGCCACAGCAGAAGCGUUCCCGUCGCAGCCCCUGUCAGAUUCUGGUGAAUCUGCGAAUUCCGCUGUAUAUCUC, the self-cleavage stood at 0.19.

Regarding UAACAGGGGGCCACAGCAGAAGCGUUCCCGUCGCAGCCCCUGUCAGAUUCUGGUGAAUCUGCGAAUUCGGCUGUAUAUCUC, the self-cleavage stood at 0.2.

For the variant UAACAGGGGGCCACAGCAGAAGCGUUCCCGUCGCAGCCCCUGUCAGAUUCUGGUGAAUCUGCGAAUUCAGCUGUAUAUCUC, the self-cleavage turned out to be 0.17.

For UAACAGGGGGCCACAGCAGAAGCGUUCCCGUCGCAGCCCCUGUCAGAUUCUGGUGAAUCUGCGAAUUCUGCUGUACAUCUC, the self-cleavage was found to be 0.53.

As to UAACAGGGGGCCACAGCAGAAGCGUUCCCGUCGCAGCCCCUGUCAGAUUCUGGUGAAUCUGCGAAUUCUGCUGUAAAUCUC, the self-cleavage stood at 0.61.

For UAACAGGGGGCCACAGCAGAAGCGUUCGCGUCGCAGCCCCUGUCAGUUUCUGGUGAAUCUGCGAAUUCUGCUGUAUAUCUC, the self-cleavage was found to be 0.25.

Take UAACAGGGGGCCACAGCAGAAGCGUUCGCGUCGCAGCCCCUGUCAGGUUCUGGUGAAUCUGCGAAUUCUGCUGUAUAUCUC: the self-cleavage was determined as 0.52.

For the variant UAACAGGGGGCCACAGCAGAAGCGUUCGCGUCGCAGCCCCUGUCAGCUUCUGGUGAAUCUGCGAAUUCUGCUGUAUAUCUC, the self-cleavage came to 0.23.

As to UAACAGGGGGCCACAGCAGAAGCGUUCGCGUCGCAGCCCCUGUCAGAUUCUGGUGAAUCUGCGGAUUCUGCUGUAUAUCUC, the self-cleavage was found to be 0.46.

Consider UAACAGGGGGCCACAGCAGAAGCGUUCCCGUCGCAGCCCCUGUCAGAUUCUGGUGAAUCUGCGAAUUCUGCUGCAUAUCUC, for which the self-cleavage is 0.7.

As to UAACAGGGGGCCACAGCAGAAGCGUUCCCGUCGCAGCCCCUGUCAGAUUCUGGUGAAUCUGCGAAUUCUGCUGAAUAUCUC, the self-cleavage was 0.9.

For UAACAGGGGGCCACAGCAGAAGCGUUCGCGUCGCAGCCCCUGUCAGAUUCUGGUGCAUCUGCGAAUUCUGCUGUAUAUCUC, the self-cleavage came to 0.31.

For UAACAGGGGGCCACAGCAGAAGCGUUCGCGUCGCAGCCCCUGUCAGAUUCUGGUGGAUCUGCGAAUUCUGCUGUAUAUCUC, the self-cleavage was determined as 0.43.

UAACAGGGGGCCACAGCAGAAGCGUUCGCGUCGCAGCCCCUGUCAGAUUCUGGUGUAUCUGCGAAUUCUGCUGUAUAUCUC: the self-cleavage worked out at 0.34.

In the case of UAACAGGGGGCCACAGCAGAAGCGUUCCCGUCGCAGCCCCUGUCAGAUUCUGGUGAAUCCGCGAAUUCUGCUGUAUAUCUC, the self-cleavage turned out to be 0.29.

As to UAACAGGGGGCCACAGCAGAAGCGUUCCCGUCGCAGCCCCUGUCAGAUUCUGGUGAAUCUGCGAACUCUGCUGUAUAUCUC, the self-cleavage was 0.28.

Turning to UAACAGGGGGCCACAGCAGAAGCGUUCGCGUCGCGGCCCCUGUCAGAUUCUGGUGAAUCUGCGAAUUCUGCUGUAUAUCUC, the self-cleavage was 1.18.

UAACAGGGGGCCACAGCAGAAGCGUUCGCGUCGCCGCCCCUGUCAGAUUCUGGUGAAUCUGCGAAUUCUGCUGUAUAUCUC: the self-cleavage came to 0.53.

For the variant UAACAGGGGGCCACAGCAGAAGCGUUCGCGUCGCUGCCCCUGUCAGAUUCUGGUGAAUCUGCGAAUUCUGCUGUAUAUCUC, the self-cleavage turned out to be 0.27.
